Experimental findings from patent publication US20250179192A1 (PHARMABCINE, published 2025) are described below.

The target in assay [1] is T1, VEGFR2 (KDR) on HUVECs (human, UniProt P35968 20-1356).
T1 construct: Endogenous receptor on HUVECs; also called KDR (VEGFR-2)
Put plainly: FACS on HUVECs, 5 nM, anti-human IgG-PE secondary; secondary only 65.7. The protocol: To determine the binding activity of the fusion protein to HUVECs, FACS analysis was performed using the fusion protein and control antibodies (6A6, 6A6×DLL4, D4, Minod-Fc).
Specifically, HUVECs (LONZA, Cat No. C2519A) were cultured at 37° C. and 5% CO₂ using a plate coated with 2% gelatin and VascuLife medium complete kit (Lifeline Cell Technology, Cat No. #LCT-LL-0005). The cells were prepared at a concentration of 2×10⁷ cells/ml in FACS buffer (0.5% FBS, 0.05% sodium azide in PBS) and dispensed at 50 μl into each of FACS tubes. 100 μl of each antibody at a concentration of 5 nM was mixed in the FACS tube, followed by reaction at 4° C. for 30 minutes. After completion of reaction, 2 ml of FACS buffer was added to each tube, followed by centrifugation at 1500 rpm for 3 minutes. The supernatant was removed, the cells were resuspended, and 100 μl of anti-human IgG-PE antibody (1:200, Bethyl, #A80-248PE) was added, followed by reaction at 4° C. for 20 minutes. 2 ml of FACS buffer was added to each FACS tube, followed by centrifugation at 1500 rpm for 3 minutes. The separated supernatant was removed, the cells were resuspended in 200 μl of FACS buffer, and the binding activity was analyzed using FACS (Beckton Dickinson, Lyric).

In assay [2] the target is T2, hDLL4 expressed on HEK293 cells (human, UniProt Q9NR61 27-685).
T2 construct: whole, on cells; also called DLL4-overexpressed HEK293 cells
T2 sequence (Q9NR61 27-685): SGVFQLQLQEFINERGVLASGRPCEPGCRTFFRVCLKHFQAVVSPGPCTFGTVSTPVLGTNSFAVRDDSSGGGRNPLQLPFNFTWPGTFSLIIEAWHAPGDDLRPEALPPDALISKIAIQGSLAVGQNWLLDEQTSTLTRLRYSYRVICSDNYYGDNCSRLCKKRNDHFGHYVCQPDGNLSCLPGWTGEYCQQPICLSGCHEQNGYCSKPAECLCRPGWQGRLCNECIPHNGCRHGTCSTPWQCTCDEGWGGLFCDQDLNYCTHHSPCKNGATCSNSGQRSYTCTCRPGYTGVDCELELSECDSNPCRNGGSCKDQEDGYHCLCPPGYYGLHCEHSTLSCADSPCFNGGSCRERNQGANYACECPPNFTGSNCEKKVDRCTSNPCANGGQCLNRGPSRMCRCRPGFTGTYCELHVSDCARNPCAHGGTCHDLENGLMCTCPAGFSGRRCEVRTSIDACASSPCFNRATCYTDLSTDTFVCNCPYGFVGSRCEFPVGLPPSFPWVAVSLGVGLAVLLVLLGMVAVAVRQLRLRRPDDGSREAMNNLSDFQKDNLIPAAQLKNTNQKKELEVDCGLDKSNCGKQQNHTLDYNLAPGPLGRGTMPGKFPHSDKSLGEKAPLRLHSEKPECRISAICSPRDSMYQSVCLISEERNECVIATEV
Description: FACS on hDLL4-overexpressing HEK293 cells (293-DLL4), 5 nM, anti-human IgG-PE secondary; secondary only 82.0. On the procedure:
Specifically, the pcDNA-hDLL4 vector synthesized by GeneArt was transfected into HEK293 cells using Lipofectamin™ 2000 (Invitrogen #1168-019, USA), and neomycin (Gibco #10131, 50 mg/ml) was added for selection. Then, all grown cells were collected and cultured in a pool state. Then, 23 types of single colonies were obtained by culture using a limiting dilution method, and among the single colonies, one type of cell line that highly overexpressed hDLL4 was selected and tested. The selected cells were prepared to a concentration of 2×10⁷ cells/ml in FACS buffer (0.5% FBS, 0.05% sodium azide in PBS) and dispensed at 50 μl into each of FACS tubes. 5 nM fusion protein and control antibodies (6A6, 6A6×DLL4, D4, D4×DLL4, Minod-Fc) were added in 100 μl to each of the FACS tubes containing the cells, followed by reaction at 4° C. for 30 minutes. After completion of reaction, 2 ml of FACS buffer was added to each tube, followed by centrifugation at 1500 rpm for 3 minutes. The supernatant was removed, the cells were well resuspended, and then 100 μl of anti-human IgG-PE antibody (1:200, […], #A80-248PE) was added, followed by reaction at 4° C. for 20 minutes. After completion of reaction, 2 ml of FACS buffer was added to each FACS tube, followed by centrifugation at 1500 rpm for 3 minutes. The separated supernatant was removed, the cells were resuspended in 200 μl of FACS buffer, and the binding activity was analyzed using FACS (Beckton Dickinson, Lyric).

The target of assay [3] is T3, KDR1-3 domains (UniProt P35968 20-327, limits assumed).
T3 construct: domain: KDR1-3 domains; Immobilized on the Octet biosensor; also called KDR D1-D3; KDR1-3 domain-Fc (as used for panning)
T3 sequence (P35968 20-327 limits assumed): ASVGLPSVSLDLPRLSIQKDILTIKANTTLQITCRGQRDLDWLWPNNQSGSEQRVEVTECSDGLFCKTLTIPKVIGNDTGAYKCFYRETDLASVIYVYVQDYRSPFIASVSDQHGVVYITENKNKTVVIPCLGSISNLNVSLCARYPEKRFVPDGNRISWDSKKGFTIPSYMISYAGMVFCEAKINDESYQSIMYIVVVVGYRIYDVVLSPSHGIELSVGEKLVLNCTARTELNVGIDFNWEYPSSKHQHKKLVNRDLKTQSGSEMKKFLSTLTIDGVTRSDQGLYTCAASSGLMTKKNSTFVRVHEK
Put plainly: Octet BLI, KDR1-3 domains on biosensor, scFv in solution. On the procedure:
The binding ability of the selected antibodies to the antigen was measured using Octet (Fortebio). To this end, KDR1-3 domains were immobilized on a biosensor, candidate antibodies expressed in scFv form were added and bound, and the dissociation rate constant was measured. The results of measurement of dissociation rate constant for the five selected optimized clones [Table 1] and amino acid sequences [Tables 2 and 3] are shown below.
A general note: BLI is a label-free optical method that tracks binding on a fibre tip over time.

Assay [4] concerns the target T4, hKDR-ECD (human, UniProt P35968 20-764).
T4 construct: extracellular domain; Analyte in SPR; also called human KDR (VEGFR-2) extracellular domain
Put plainly: SPR Biacore T200, fusion protein captured on Protein A chip, antigen as analyte, 1:1 model. On the procedure: (§1) The binding ability of the selected fusion protein to the antigen was measured using SPR (Biacore T200, Cytiva). The fusion protein was captured and analyzed using the antigen protein as an analyte. Using a Protein A chip, the fusion protein was immobilized on the surface according to the manufacturer's instructions. The fusion protein on the sensor chip was diluted with PBS-T running buffer to a concentration of 5 μg/ml and injected at a flow rate of 10 μl/min to reach about 200 RU. The antigen was diluted with PBS-T running buffer by concentration and injected at a flow rate of 30 μl/min for 4 minutes, and the dissociation time was set to 10 minutes. To remove the fusion protein bound every cycle, a regeneration solution (10 mM glycine-HCl, pH 1.5) was injected at a flow rate of 30 μl/min for 1 minute. The experimental results were calculated using the 1:1 binding model of BIA evaluation software version 1.0.
A general note: Surface plasmon resonance follows binding to a sensor surface in real time, without labels.

Assay [5] has as its target T5, hDLL4 (human, UniProt Q9NR61 27-524, limits assumed).
T5 construct: Analyte in SPR; also called human delta-like ligand 4 (soluble antigen protein)
The assay is described as above. On the procedure:
as §1

T1 sequence (P35968 20-1356 limits assumed): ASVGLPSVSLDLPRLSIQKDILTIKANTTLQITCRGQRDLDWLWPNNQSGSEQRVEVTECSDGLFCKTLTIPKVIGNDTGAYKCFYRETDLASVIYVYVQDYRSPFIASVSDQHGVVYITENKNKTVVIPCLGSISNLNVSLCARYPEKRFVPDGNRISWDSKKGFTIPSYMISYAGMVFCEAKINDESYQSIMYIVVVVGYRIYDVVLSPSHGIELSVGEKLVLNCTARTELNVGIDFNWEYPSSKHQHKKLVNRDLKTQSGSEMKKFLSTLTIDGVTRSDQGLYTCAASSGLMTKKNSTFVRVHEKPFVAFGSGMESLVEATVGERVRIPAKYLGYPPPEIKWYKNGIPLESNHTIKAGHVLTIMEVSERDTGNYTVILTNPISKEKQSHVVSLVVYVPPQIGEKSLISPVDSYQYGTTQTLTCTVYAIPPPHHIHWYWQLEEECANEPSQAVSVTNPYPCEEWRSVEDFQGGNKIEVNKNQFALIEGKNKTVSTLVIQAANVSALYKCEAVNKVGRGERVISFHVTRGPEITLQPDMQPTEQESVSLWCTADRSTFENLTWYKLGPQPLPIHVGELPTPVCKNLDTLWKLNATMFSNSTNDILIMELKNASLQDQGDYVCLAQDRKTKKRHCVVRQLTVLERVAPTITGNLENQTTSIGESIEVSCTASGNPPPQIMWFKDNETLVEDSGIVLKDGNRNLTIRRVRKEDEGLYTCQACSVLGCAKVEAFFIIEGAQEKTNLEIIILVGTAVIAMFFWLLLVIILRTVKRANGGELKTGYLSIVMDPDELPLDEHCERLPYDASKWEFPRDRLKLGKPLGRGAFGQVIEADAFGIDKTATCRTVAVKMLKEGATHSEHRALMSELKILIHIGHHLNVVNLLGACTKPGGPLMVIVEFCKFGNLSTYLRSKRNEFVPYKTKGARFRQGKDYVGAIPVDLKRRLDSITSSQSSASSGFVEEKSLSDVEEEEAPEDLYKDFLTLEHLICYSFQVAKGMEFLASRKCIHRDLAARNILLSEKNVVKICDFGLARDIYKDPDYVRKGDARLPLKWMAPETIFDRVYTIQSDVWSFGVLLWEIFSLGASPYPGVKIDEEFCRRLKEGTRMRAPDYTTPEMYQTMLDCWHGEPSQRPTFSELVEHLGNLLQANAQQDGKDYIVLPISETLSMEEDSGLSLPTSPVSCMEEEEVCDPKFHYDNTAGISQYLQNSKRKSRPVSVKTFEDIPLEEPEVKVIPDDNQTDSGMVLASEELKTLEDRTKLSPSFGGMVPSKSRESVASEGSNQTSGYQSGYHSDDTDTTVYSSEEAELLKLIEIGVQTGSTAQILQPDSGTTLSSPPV
T4 sequence (P35968 20-764): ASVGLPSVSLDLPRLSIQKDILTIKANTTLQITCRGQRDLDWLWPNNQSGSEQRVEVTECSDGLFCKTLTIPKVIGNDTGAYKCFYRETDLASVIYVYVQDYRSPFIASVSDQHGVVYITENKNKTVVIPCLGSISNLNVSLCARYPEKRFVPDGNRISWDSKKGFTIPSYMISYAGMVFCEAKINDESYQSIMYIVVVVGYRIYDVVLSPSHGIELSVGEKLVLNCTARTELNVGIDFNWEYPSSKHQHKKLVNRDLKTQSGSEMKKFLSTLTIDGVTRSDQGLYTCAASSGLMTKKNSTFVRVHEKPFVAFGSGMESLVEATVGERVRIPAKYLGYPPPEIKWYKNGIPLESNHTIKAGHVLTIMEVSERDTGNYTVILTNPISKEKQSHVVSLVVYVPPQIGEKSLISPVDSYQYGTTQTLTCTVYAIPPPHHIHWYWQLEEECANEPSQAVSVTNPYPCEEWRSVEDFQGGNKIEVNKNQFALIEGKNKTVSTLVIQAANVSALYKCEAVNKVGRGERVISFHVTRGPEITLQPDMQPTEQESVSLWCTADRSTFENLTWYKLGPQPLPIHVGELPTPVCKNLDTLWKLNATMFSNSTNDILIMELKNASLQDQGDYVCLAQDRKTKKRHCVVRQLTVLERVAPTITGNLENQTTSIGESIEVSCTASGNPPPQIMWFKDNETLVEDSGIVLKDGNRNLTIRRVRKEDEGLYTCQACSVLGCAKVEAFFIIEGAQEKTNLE
T5 sequence (Q9NR61 27-524 limits assumed): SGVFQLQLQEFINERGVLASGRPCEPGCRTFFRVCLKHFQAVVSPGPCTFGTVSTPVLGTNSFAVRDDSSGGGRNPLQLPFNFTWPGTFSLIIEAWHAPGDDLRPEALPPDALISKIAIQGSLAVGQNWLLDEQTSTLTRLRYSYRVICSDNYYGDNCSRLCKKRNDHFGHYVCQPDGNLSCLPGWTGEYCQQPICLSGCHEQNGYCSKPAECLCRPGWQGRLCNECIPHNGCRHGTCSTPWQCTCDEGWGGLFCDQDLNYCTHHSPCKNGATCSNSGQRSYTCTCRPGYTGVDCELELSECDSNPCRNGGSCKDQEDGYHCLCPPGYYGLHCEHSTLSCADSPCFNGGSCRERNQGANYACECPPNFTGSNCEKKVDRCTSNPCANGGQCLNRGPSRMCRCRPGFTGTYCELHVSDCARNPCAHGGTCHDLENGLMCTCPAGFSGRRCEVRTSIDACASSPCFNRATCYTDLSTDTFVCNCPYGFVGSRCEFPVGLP

B1: D4 (IgG1 form) (antibody, V domains shown)
VH: EVQLVESGGGLVQPGGSLRLSCAASGYTFSSYWMSWVRQAPGKGLEWVSEINPGNGHTNYNEKFKSRFTISRDKSKNTLYLQMNSLRAEDTAVYYCARHWGPSLTSPFDYWGQGTLVTVSS
VL: DIQMTQSPSSLSASVGDRVTITCRADNLGDVNVHWYQQKPGKAPKLLIYYDADRPSGVPSRFSGSNSGNDATLTISSLQPEDFATYYCQAPTNNDPYTFGQGTKVEIKR
notes: also called optimized antibody D4
For the molecule B1, the “Geometric Mean : PE-A” value amounted to 456 in assay [1] and 71.1 in assay [2].

B2: D4 (scFv form) (scFv, V domains shown)
VH: EVQLVESGGGLVQPGGSLRLSCAASGYTFSSYWMSWVRQAPGKGLEWVSEINPGNGHTNYNEKFKSRFTISRDKSKNTLYLQMNSLRAEDTAVYYCARHWGPSLTSPFDYWGQGTLVTVSS
VL: DIQMTQSPSSLSASVGDRVTITCRADNLGDVNVHWYQQKPGKAPKLLIYYDADRPSGVPSRFSGSNSGNDATLTISSLQPEDFATYYCQAPTNNDPYTFGQGTKVEIKR
notes: Tested as scFv
As usually defined, the koff is the rate constant with which the complex falls apart. The low end stands for a long-lived complex, the high end for a short-lived complex. B2 showed a koff in assay [3] of 0.000165 s⁻¹.

B3: LHL-G1 (scFv form) (scFv, V domains shown)
VH: EVQLVESGGGLVQPGGSLRLSCAASGYTFSSYWMSWVRQAPGKGLEWVSEINPGNGHTNYNEKFKSRFTISRDKSKNTLYLQMNSLRAEDTAVYYCARSYRPSLTSPFDFWGQGTLVTVSS
VL: DIQMTQSPSSLSASVGDRVTITCRADNLGDVNVHWYQQKPGKAPKLLIYYDADRPSGVPSRFSGSNSGNDATLTISSLQPEDFATYYCQAPTTNEPYTFGQGTKVEIKR
notes: Tested as scFv
In turn, B3 displayed a koff in assay [3] of 0.000239 s⁻¹.

B4: A5 (scFv form) (scFv, V domains shown)
VH: EVQLVESGGGLVQPGGSLRLSCAASGYTFSSYWMSWVRQAPGKGLEWVSEINPGNGHTNYNEKFKSRFTISRDKSKNTLYLQMNSLRAEDTAVYYCARHWGPSLTSPFDYWGQGTLVTVSS
VL: DIQMTQSPSSLSASVGDRVTITCRADNLGDVNVHWYQQKPGKAPKLLIYYDADRPSGVPSRFSGSNSGNDATLTISSLQPEDFATYYCQAPTTHLPYTFGQGTKVEIKR
notes: Tested as scFv
In assay [3], B4 gave a koff of 0.000187 s⁻¹.

B5: D3 (scFv form) (scFv, V domains shown)
VH: EVQLVESGGGLVQPGGSLRLSCAASGYTFSSYWMSWVRQAPGKGLEWVSEINPGNGHTNYNEKFKSRFTISRDKSKNTLYLQMNSLRAEDTAVYYCARHWGPSLTSPFDYWGQGTLVTVSS
VL: DIQMTQSPSSLSASVGDRVTITCRADNLGDVNVHWYQQKPGKAPKLLIYYDADRPSGVPSRFSGSNSGNDATLTISSLQPEDFATYYCQAPTKNVPYTFGQGTKVEIKR
notes: Tested as scFv
Regarding B5, the koff in assay [3] turned out to be 0.00015 s⁻¹.

B6: LH-E7 (scFv form) (scFv, V domains shown)
VH: EVQLVESGGGLVQPGGSLRLSCAASGYTFSSYWMSWVRQAPGKGLEWVSEINPGNGHTNYNEKFKSRFTISRDKSKNTLYLQMNSLRAEDTAVYYCARHWGPSLTSPFDYWGQGTLVTVSS
VL: DIQMTQSPSSLSASVGDRVTITCRADNLGDVNVHWYQQKPGKAPKLLIYYDADRPSGVPSRFSGSNSGNDATLTISSLQPEDFATYYCQAPTRIAPYTFGQGTKVEIKR
notes: Tested as scFv
For the molecule B6, the koff in assay [3] stood at 0.000111 s⁻¹.

B7: 6A6×DLL4 (bispecific antibody)
VH: QMQLVQSGAEVKKPGASVKLSCKASGYTFSSYWMHWVRQAPGQRLEWMGEINPGNGHTNYNEKFKSRVTITVDKSASTAYMELSSLRSEDTAVYYCAKIWGPSLTSPFDYWGQGTLVTVSS
Notch1-VL: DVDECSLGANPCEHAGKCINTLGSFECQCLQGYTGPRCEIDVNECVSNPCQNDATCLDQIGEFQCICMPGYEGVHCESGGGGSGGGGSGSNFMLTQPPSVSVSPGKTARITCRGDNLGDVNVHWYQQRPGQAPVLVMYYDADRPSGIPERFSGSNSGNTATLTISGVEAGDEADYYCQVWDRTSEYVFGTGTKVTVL
notes: Comparative fusion protein with a 6A6 backbone; it was captured on a Protein A chip; also called 6A6xDLL4
The term Kd denotes the equilibrium constant for the complex coming apart. For orientation: kon means the second-order rate constant of association. Take B7: the “Geometric Mean : PE-A” value in assay [1] worked out at 380. In assay [4], this molecule showed a Kd of 4.46 nM, a Pmax of 502, a koff of 0.000837 s⁻¹ and a kon of 188000 M⁻¹ s⁻¹. In assay [5], the Pmax was 74.9 and the kon turned out to be 45800 M⁻¹ s⁻¹. In assay [2], the “Geometric Mean : PE-A” value was determined as 968.

B8: 6A6 (control antibody) (antibody, V domains shown)
VH: QMQLVQSGAEVKKPGASVKLSCKASGYTFSSYWMHWVRQAPGQRLEWMGEINPGNGHTNYNEKFKSRVTITVDKSASTAYMELSSLRSEDTAVYYCAKIWGPSLTSPFDYWGQGTLVTVSS
VL: SNFMLTQPPSVSVSPGKTARITCRGDNLGDVNVHWYQQRPGQAPVLVMYYDADRPSGIPERFSGSNSGNTATLTISGVEAGDEADYYCQVWDRTSEYVFGTGTKVTVLG
Consider B8, for which the “Geometric Mean : PE-A” value is 352 in assay [1] and 84.6 in assay [2].
